Measurements reported in PMC7294632, “Structure-guided protein engineering increases enzymatic activities of the SGNH family esterases” (Biotechnology for Biofuels, 2020).

Key:
purified protein [1] = substrate: CCCCCC(=O)Oc1ccc([N+](=O)[O-])cc1; test: purified protein; assay type: biochemical, Croceicoccus marinus; conditions: 100 mM Tris-HCl pH 7.5, 20 °C, substrate 0.05-2 mM
purified protein [2] = substrate: CCCC(=O)Oc1ccc([N+](=O)[O-])cc1; test: purified protein; assay type: biochemical, Altericroceibacterium indicum; conditions: 100 mM Tris-HCl pH 7.5, 40 °C, substrate 0.05-2 mM

B1: CrmE10 (Croceicoccus marinus) (protein)
chain: MADGEAAGQQADAVMPTGPAIDVLAFGDSLFAGYRLDRDESYPARLQAALRERGLNVNVTNAGVSGDTTAAGLQRIDFVLDSMAGEPDLVLLELGANDMLRGLPAEEARRNLDTILQRLDQRDIPVMVYGMRAAPNLGGDYGRSFDSIFPDLADKYDAELVPFFIEPLIFDRSLVQQDQLHPTAQGVDAMVEQTVEQVEDRIDDL
notes: expressed in E. coli BL21 (DE3) from pSMT3, N-terminal His-Sumo tag removed with ULP1; monomer in solution by MALS, domain-swapped dimer in crystal
Km (purified protein [1]): 160 µM
kcat (purified protein [1]): 29.4 s⁻¹

B2: AlinE4 (Altericroceibacterium indicum) (protein)
chain: SMGESRVILAFGDSLFAGYGLDKGESYPAKLETALRSHGINARIINAGVSGDTTAAGLQRIKFVLDSQPDKPELAIVELGGNDLLRGLSPAEARQNLSGILEELQRRKIPILLMGMRAPPNLGAKYQREFDGIYPYLAEKYDAKLVPFFLEAVADRPDLIQKDHVHPTARGVEELVSATSNAVAKALPAKK
notes: as for B1
Km (purified protein [2]): 100 µM
kcat (purified protein [2]): 25.8 s⁻¹
